The record followed here is patent US20220098635A1.

Test [1] addresses Thiolated streptavidin (UniProt P22629). Description: single-molecule conductance distribution (counts against Log G, fitted peaks); bis-biotinylated phi29 polymerase in a junction of palladium electrodes coated with thiolated streptavidin.
For test [2] the target is unchanged. Nature of the test: single-molecule conductance distribution (counts against Log G, fitted peaks); two-Avitag phi29 polymerase without flexible linker wired with biotin-streptavidin; the same distribution as 52 in Fig. 5B.

Thiolated streptavidin, sequence (P22629 37-163 limits assumed): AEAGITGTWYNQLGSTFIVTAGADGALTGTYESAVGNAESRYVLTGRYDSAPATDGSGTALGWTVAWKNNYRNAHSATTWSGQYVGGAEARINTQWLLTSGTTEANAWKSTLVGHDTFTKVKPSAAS

“bis-biotinylated ϕ29 polymerase (from UniProt P03680 1-111; P03680 112-279; P03680 280-575) (enzyme)”: the conductance peak (circled feature 53) in test [1] was 3.98 nS. The substance further yielded a conductance peak (circled feature 1103) in test [2] of 3.98 nS.
